# Measured values from publication PMC10326071.
# Target: middle domain of human Paip1 (Paip1M) (human) (UniProt Q9H074)
# Test: BLI; […]; 1x PBS pH 7.4, 0.1% surfactant P20, 0.1% BSA, 500 mM NaCl; 25 C; global fit, 1:1 model
# Sequence of middle domain of human Paip1 (Paip1M) (human) (Q9H074 157-375): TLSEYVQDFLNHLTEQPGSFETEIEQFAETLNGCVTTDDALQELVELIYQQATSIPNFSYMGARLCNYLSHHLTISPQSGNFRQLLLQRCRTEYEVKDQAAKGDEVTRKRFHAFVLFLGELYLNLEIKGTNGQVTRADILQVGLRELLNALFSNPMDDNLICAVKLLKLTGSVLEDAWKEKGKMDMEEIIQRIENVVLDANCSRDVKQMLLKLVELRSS
substance,measurement,value
SARS-CoV-2 SUD-core-CC (domain or fragment),Kd,7.2 µM
